From patent US20230270875A1, “METHODS OF USING ANTI-CD79B IMMUNOCONJUGATES” (Genentech, Inc., priority 2020, published 2023)

Assays:
[1] = system: patients with relapsed or refractory follicular lymphoma (R/R FL); experiment: Phase Ib/II study, FL dose-escalation phase: safety (adverse events, DLTs, RP2D) of G+Pola+V; assay type: in vivo; settings: in combination with venetoclax 800 mg and obinutuzumab 1000 mg
From the text: This Example describes a Phase Ib/II study evaluating the safety and efficacy of obinutuzumab (G) in combination with polatuzumab vedotin (Pola) and venetoclax (V) in patients with relapsed or refractory follicular lymphoma (R/R FL) and rituximab (R) in combination with polatuzumab vedotin and venetoclax in patients with relapsed or refractory diffuse large B-cell lymphoma (R/R DLBCL).
This Phase Ib/II, open-label, multicenter, non-randomized study evaluated the safety, efficacy, and pharmacokinetics of obinutuzumab (G)+Polatuzumab vedotin (Pola)+venetoclax (V) in patients with R/R FL and rituximab (R)+Pola+V in patients with R/R DLBCL.
This dose-escalation phase included FL patients only.
All patients enrolled in the dose-escalation phase received induction treatment, administered in 21-day cycles as shown in Table 1. […]
The observation period was based on evaluation of dose-limiting toxicities (DLTs) in cycle 1. […] If no additional DLTs were reported, the next dose could be evaluated. […]
Adverse events are assessed according to the adverse event severity grading scale for the NCI CTCAE (v4.0). […]
Laboratory assessments and adverse events (AEs) were assessed throughout the study, with complete blood counts performed on days 1, 8, and 15 of cycle 1, on day 1 of cycles 2-6, and monthly during maintenance treatment. […]

patients with R/R NHL = settings: human, in vivo; cited from earlier work

Row | Substance | Recommended Phase II dose (RP2D) [1] [mg/kg] | Incidence of Grade 3-4 neutropenia (patients with R/R NHL) [%]
1 | polatuzumab vedotin: anti-CD79b immunoconjugate, CAS Registry Number 1313206-42-6; humanized antibody conjugated to MMAE via mc-val-cit-PABC linker | 1.8 | –
2 | obinutuzumab | – | 5
